Test results reported in the supplement of paper PMC9112550, “Optimization of the antimicrobial peptide Bac7 by deep mutational scanning” (BMC Biology, 2022).

Test system: Escherichia coli TOP10
Assay: shrunken log2 fold change of peptide-encoding DNA abundance (4.5 h post-induction vs induction); higher = less antimicrobial activity (less host growth inhibition)
Settings: time post-induction: 4.5 h; library: site-saturation at positions 5, 18, 19, 20
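Note: peptides expressed intracellularly from a pBAD plasmid library in pooled LB shake-flask culture, induced with 0.3% L-arabinose, DNA abundance read by NGS, three biological replicates, DESeq2 with apeglm shrinkage.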

Sequence	shrunken log2 fold change
RRIRNRPPRLPRPRPRPQGFPRP	-0.00956
RRIRPRPPRLPRPRPRPYLGPRP	3.16
RRIRPRPPRLPRPRPRPQHLPRP	-0.172
RRIRTRPPRLPRPRPRPTITPRP	0.184
RRIRLRPPRLPRPRPRPIACPRP	0.0367
RRIRCRPPRLPRPRPRPKMMPRP	-0.113
RRIRPRPPRLPRPRPRPRDEPRP	0.0975
RRIRCRPPRLPRPRPRPCVLPRP	-0.7
RRIRPRPPRLPRPRPRPVYAPRP	-0.261
RRIRKRPPRLPRPRPRPCSHPRP	0.0663
RRIRPRPPRLPRPRPRPGCCPRP	0.343
RRIRQRPPRLPRPRPRPCDSPRP	-0.0167
RRIRRRPPRLPRPRPRPRWFPRP	0.524
RRIRDRPPRLPRPRPRPEIFPRP	-0.0297
RRIRARPPRLPRPRPRPWHDPRP	-0.00134
RRIRTRPPRLPRPRPRPSTEPRP	-0.456
RRIRVRPPRLPRPRPRPASPPRP	0.102
RRIRHRPPRLPRPRPRPYPVPRP	-0.00992
RRIRERPPRLPRPRPRPFFPPRP	-0.241
RRIRPRPPRLPRPRPRPEPCPRP	0.215
RRIRSRPPRLPRPRPRPTTRPRP	0.222
RRIRPRPPRLPRPRPRPSYFPRP	-0.514
RRIRTRPPRLPRPRPRPWCFPRP	-0.046
RRIRDRPPRLPRPRPRPCFSPRP	-0.0275
RRIRHRPPRLPRPRPRPGRNPRP	-0.31

Sequence	shrunken log2 fold change
RRIRHRPPRLPRPRPRPAYAPRP	-0.182
RRIRWRPPRLPRPRPRPGNSPRP	-0.22
RRIRFRPPRLPRPRPRPIWDPRP	-0.319
RRIRNRPPRLPRPRPRPSLNPRP	-0.335
RRIRTRPPRLPRPRPRPYHFPRP	-0.28
RRIRSRPPRLPRPRPRPMTRPRP	0.381
RRIRNRPPRLPRPRPRPFTRPRP	0.00645
RRIRERPPRLPRPRPRPANKPRP	-0.632
RRIRYRPPRLPRPRPRPFLWPRP	-0.0621
RRIRRRPPRLPRPRPRPLFPPRP	0.0907
RRIRKRPPRLPRPRPRPEKKPRP	-0.018
RRIRARPPRLPRPRPRPGAHPRP	0.669
RRIRMRPPRLPRPRPRPRNGPRP	0.833
RRIRYRPPRLPRPRPRPQNKPRP	-0.969
RRIRGRPPRLPRPRPRPWDIPRP	0.212
RRIRNRPPRLPRPRPRPDGRPRP	-0.109
RRIRGRPPRLPRPRPRPINGPRP	0.1
RRIRERPPRLPRPRPRPAERPRP	0.104
RRIRRRPPRLPRPRPRPYVTPRP	-0.383
RRIRWRPPRLPRPRPRPEVKPRP	0.21
RRIRYRPPRLPRPRPRPFTLPRP	-0.019
RRIRPRPPRLPRPRPRPQRFPRP	0.0622
RRIRSRPPRLPRPRPRPHAWPRP	0.149
RRIRCRPPRLPRPRPRPNLEPRP	-0.267
RRIRWRPPRLPRPRPRPQLGPRP	0.276

Sequence	shrunken log2 fold change
RRIRMRPPRLPRPRPRPVYWPRP	0.0687
RRIRCRPPRLPRPRPRPEQSPRP	0.67
RRIRKRPPRLPRPRPRPPPAPRP	1.29
RRIRSRPPRLPRPRPRPYRVPRP	-0.0218
RRIRSRPPRLPRPRPRPATEPRP	0.121
RRIRTRPPRLPRPRPRPQNMPRP	-0.654
RRIRARPPRLPRPRPRPEGDPRP	1.39
RRIRHRPPRLPRPRPRPLTWPRP	-0.135
RRIRSRPPRLPRPRPRPDHSPRP	-0.096
RRIRVRPPRLPRPRPRPWTVPRP	-0.782
RRIRIRPPRLPRPRPRPRVLPRP	-0.24
RRIRNRPPRLPRPRPRPITMPRP	-0.533
RRIRNRPPRLPRPRPRPVPKPRP	0.883
RRIRRRPPRLPRPRPRPIEYPRP	-0.124
RRIRARPPRLPRPRPRPEYQPRP	0.118
RRIRTRPPRLPRPRPRPHHAPRP	-0.00367
RRIRIRPPRLPRPRPRPSKYPRP	-1.12
RRIRWRPPRLPRPRPRPEDVPRP	0.0895
RRIRCRPPRLPRPRPRPTPLPRP	0.522
RRIRTRPPRLPRPRPRPFDPPRP	-0.112
RRIRERPPRLPRPRPRPMWCPRP	0.0762
RRIRCRPPRLPRPRPRPTEGPRP	0.284
RRIRYRPPRLPRPRPRPREMPRP	-0.126
RRIRPRPPRLPRPRPRPEVTPRP	0.198
RRIRSRPPRLPRPRPRPFVHPRP	-0.291

Sequence	shrunken log2 fold change
RRIRERPPRLPRPRPRPYENPRP	0.0288
RRIRPRPPRLPRPRPRPQIVPRP	-0.594
RRIRHRPPRLPRPRPRPHENPRP	-0.0891
RRIRHRPPRLPRPRPRPHVYPRP	-0.939
RRIRIRPPRLPRPRPRPEGFPRP	-0.321
RRIRPRPPRLPRPRPRPMTVPRP	-0.038
RRIRFRPPRLPRPRPRPIVRPRP	-0.0797
RRIRRRPPRLPRPRPRPISDPRP	0.136
RRIRTRPPRLPRPRPRPLTTPRP	-0.0573
RRIRFRPPRLPRPRPRPMREPRP	1.08
RRIRSRPPRLPRPRPRPSDMPRP	-0.373
RRIRTRPPRLPRPRPRPFCGPRP	-0.0697
RRIRKRPPRLPRPRPRPHGFPRP	0.056
RRIRVRPPRLPRPRPRPTAEPRP	0.0994
RRIRPRPPRLPRPRPRPAHMPRP	-0.0534
RRIRHRPPRLPRPRPRPQHSPRP	-0.376
RRIRFRPPRLPRPRPRPNYGPRP	-0.125
RRIRHRPPRLPRPRPRPVAPPRP	0.222
RRIRQRPPRLPRPRPRPTAFPRP	0.321
RRIRMRPPRLPRPRPRPDNHPRP	-0.21
RRIRIRPPRLPRPRPRPKRRPRP	0.123
RRIRARPPRLPRPRPRPSHYPRP	-0.0225
RRIRVRPPRLPRPRPRPQHDPRP	-0.0871
RRIRMRPPRLPRPRPRPAGTPRP	0.627
RRIRPRPPRLPRPRPRPRYIPRP	-0.602

Sequence	shrunken log2 fold change
RRIRIRPPRLPRPRPRPEWFPRP	0.00757
RRIRLRPPRLPRPRPRPGCDPRP	0.261
RRIRFRPPRLPRPRPRPVLWPRP	0.577
RRIRQRPPRLPRPRPRPRNTPRP	-0.00635
RRIRVRPPRLPRPRPRPPMWPRP	0.303
RRIRERPPRLPRPRPRPWFKPRP	-0.0858
RRIRIRPPRLPRPRPRPLTTPRP	-0.148
RRIRKRPPRLPRPRPRPKKIPRP	0.431
RRIRPRPPRLPRPRPRPQLVPRP	0.0126
RRIRERPPRLPRPRPRPSFGPRP	0.189
RRIRDRPPRLPRPRPRPPQLPRP	0.143
RRIRYRPPRLPRPRPRPSFQPRP	-1.13
RRIRHRPPRLPRPRPRPNGMPRP	-0.0133
RRIRDRPPRLPRPRPRPGKLPRP	0.0495
RRIRMRPPRLPRPRPRPSKPPRP	0.0519
RRIRRRPPRLPRPRPRPNTHPRP	-0.126
RRIRVRPPRLPRPRPRPDMNPRP	-0.548
RRIRMRPPRLPRPRPRPVTWPRP	0.216
RRIRIRPPRLPRPRPRPVAIPRP	0.0188
RRIRSRPPRLPRPRPRPLERPRP	-0.0196
RRIRLRPPRLPRPRPRPEWKPRP	-0.16
RRIRLRPPRLPRPRPRPNMCPRP	0.0102
RRIRFRPPRLPRPRPRPSEIPRP	-0.345
RRIRLRPPRLPRPRPRPCYIPRP	-0.115
RRIRIRPPRLPRPRPRPGQVPRP	-0.0393

Sequence	shrunken log2 fold change
RRIRKRPPRLPRPRPRPFLIPRP	-0.19
RRIRFRPPRLPRPRPRPQLQPRP	0.0569
RRIRARPPRLPRPRPRPSGNPRP	0.0499
RRIRHRPPRLPRPRPRPRWGPRP	0.255
RRIRSRPPRLPRPRPRPSDEPRP	-0.673
RRIRNRPPRLPRPRPRPMDMPRP	-0.235
RRIRLRPPRLPRPRPRPSKMPRP	-0.212
RRIRLRPPRLPRPRPRPGVMPRP	0.0751
RRIRHRPPRLPRPRPRPKVYPRP	0.0338
RRIRRRPPRLPRPRPRPLLSPRP	0.148
RRIRGRPPRLPRPRPRPLKMPRP	0.27
RRIRCRPPRLPRPRPRPMVVPRP	-0.0292
RRIRYRPPRLPRPRPRPFDCPRP	-0.0565
RRIRSRPPRLPRPRPRPRNNPRP	-0.212
RRIRTRPPRLPRPRPRPKSEPRP	-0.144
RRIRERPPRLPRPRPRPPDCPRP	0.0792
RRIRKRPPRLPRPRPRPVCFPRP	0.54
RRIRGRPPRLPRPRPRPHRGPRP	0.0302
RRIRLRPPRLPRPRPRPCDIPRP	-0.0237
RRIRIRPPRLPRPRPRPCGPPRP	-0.138
RRIRSRPPRLPRPRPRPPECPRP	0.0423
RRIRYRPPRLPRPRPRPPRHPRP	0.00412
RRIRHRPPRLPRPRPRPVWYPRP	0.00395
RRIRSRPPRLPRPRPRPCTVPRP	-0.253
RRIRGRPPRLPRPRPRPWPPPRP	0.663
